The text below walks through data of article PMC5873240.

One test has as its target Kv7.2-hAB[Δ6L]. The experiment in a line: NMR solution structure.
The target of the next test is Kv7.2-hABCD. Put plainly: NMR spectra.

Consider “calmodulin (from UniProt P0DP23 1-149) (natural protein)”, for which the stoichiometry N (as a rule, a count of units in the complex or per binding partner) with Kv7.2-hAB[Δ6L] turned out to be 1.

For Kv7.2-hABCD (domain or fragment), the stoichiometry N in the test with Kv7.2-hABCD was found to be 4.
